In doi:10.1101/2025.11.05.686826:

Biological target: Prometheoarchaeum syntrophicum rubisco (Prometheoarchaeum syntrophicum)
Test: SEC-SAXS

- stoichiometry N: 2
Substance: Prometheoarchaeum syntrophicum rubisco (enzyme)
